Results on one molecule are retold here after article PMC5749897.

Assay [1] concerns the target E1E2 S432A (H77 alanine-scanning library clone) (hepatitis C virus genotype 1a, strain H77). Nature of the assay: flow cytometry on cells. A general note: Flow cytometry measures light scatter and fluorescence of single cells or particles in a stream.
For assay [2], the target named is E1E2 Y443A (H77 alanine-scanning library clone) (hepatitis C virus genotype 1a, strain H77). In words: flow cytometry on cells.

B1: monoclonal antibody AR3C (antibody, V domains shown)
VH: VQLLEQSGAEVKKPGSSVKVSCETSGGTFDNYALNWVRQAPGQGLEWIGGVVPLFGTTRNAQKFQGRVTISDDKSTGTGHMELRSLRSEDTAVYYCVRSVTPRYCGGGFCYGEFDYWGQGTLVTVSS
VL: EIELTQSPATLSVSPGERATLSCRASQSVSSNLAWYQQKPGQAPRLLIYGASTRATGIPARFSGSGSGTEFTLTVSRLEPEDSAVYFCQQYYRSPLTFGGGTKVEIK
As to B1, the values for the % reactivity (of wild type) in assay [1] and in assay [2] were 55% and 15%, respectively.
